Reference: paper PMC12604781 (PLOS Pathogens, 2025)

Legend:
[1] = molecular target: SUMO-HSV-1 peptide AB (herpes simplex virus type 1 (HSV-1)); experiment: ITC
pcGAS [2] = format: biochemical, porcine; conditions: pH 7.5
PRV US1 = molecular target: T1, PRV US1 (pseudorabies virus, UniProt A0AAX7FDV8 1-364); experiment: EMSA; molar ratio 0-16; EMSA: 2.5 uM ISD45, DNA:protein molar ratio 1:0 to 1:32, 0.8% agarose, 40 mM Tris-HCl pH 9.2 running buffer, 110 V, ethidium bromide; binding buffer and temperature not stated (protein stock 20 mM Tris-HCl pH 7.5, 150 mM NaCl, 5 mM DTT); conditions: protein: recombinant; tags: His6-SUMO removed; blunt
T1 sequence: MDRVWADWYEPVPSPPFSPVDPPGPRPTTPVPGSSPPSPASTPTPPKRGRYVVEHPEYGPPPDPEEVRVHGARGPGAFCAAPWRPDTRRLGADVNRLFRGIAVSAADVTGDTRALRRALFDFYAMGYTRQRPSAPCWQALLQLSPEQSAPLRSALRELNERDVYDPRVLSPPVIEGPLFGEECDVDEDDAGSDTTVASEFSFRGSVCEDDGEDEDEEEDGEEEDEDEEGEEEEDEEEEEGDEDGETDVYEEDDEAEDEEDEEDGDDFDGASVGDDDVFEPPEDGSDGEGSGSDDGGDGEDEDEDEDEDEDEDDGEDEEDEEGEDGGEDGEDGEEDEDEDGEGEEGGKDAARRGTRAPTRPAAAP

hcGAS = hcGAS (Homo sapiens? (human), UniProt Q8N884 1-522); experiment: EMSA; no US1; EMSA: 2.5 uM ISD45, DNA:protein molar ratio 1:0 to 1:32, 0.8% agarose, 40 mM Tris-HCl pH 9.2 running buffer, 110 V, ethidium bromide; binding buffer and temperature not stated (protein stock 20 mM Tris-HCl pH 7.5, 150 mM NaCl, 5 mM DTT); conditions: protein: recombinant; tags: N-terminal Flag, C-terminal HA; His6-SUMO removed; blunt
pcGAS [3] = molecular target: T2, pcGAS (Sus scrofa? (porcine), UniProt I3LM39 1-495); experiment: as above; conditions: protein: recombinant; tags: N-terminal Flag, C-terminal HA; His6-SUMO removed; blunt
T2 sequence: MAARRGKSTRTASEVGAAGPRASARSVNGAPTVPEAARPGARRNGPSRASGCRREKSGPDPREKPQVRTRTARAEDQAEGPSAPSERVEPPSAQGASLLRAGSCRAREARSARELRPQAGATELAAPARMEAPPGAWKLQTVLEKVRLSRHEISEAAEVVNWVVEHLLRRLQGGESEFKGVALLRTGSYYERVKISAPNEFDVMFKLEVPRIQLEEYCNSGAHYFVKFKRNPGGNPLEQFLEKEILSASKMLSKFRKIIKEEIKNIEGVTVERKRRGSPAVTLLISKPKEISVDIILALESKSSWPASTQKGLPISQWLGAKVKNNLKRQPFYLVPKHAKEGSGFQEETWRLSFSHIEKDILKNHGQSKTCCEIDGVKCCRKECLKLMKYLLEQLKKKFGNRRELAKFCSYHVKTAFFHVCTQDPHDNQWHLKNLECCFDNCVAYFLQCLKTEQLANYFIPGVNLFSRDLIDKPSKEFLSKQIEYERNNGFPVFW

mcGAS = mcGAS (Mus musculus? (mouse), UniProt Q8C6L5 1-507); experiment: as above; conditions: protein: recombinant; tags: N-terminal Flag, C-terminal HA; His6-SUMO removed; chain copies: 2; blunt
pcGASNT = molecular target: T3, pcGASNT (Sus scrofa? (porcine), UniProt I3LM39 1-134); experiment: as above; conditions: protein: recombinant; tags: Flag/HA double tag vector; His6-SUMO; blunt
T3 sequence: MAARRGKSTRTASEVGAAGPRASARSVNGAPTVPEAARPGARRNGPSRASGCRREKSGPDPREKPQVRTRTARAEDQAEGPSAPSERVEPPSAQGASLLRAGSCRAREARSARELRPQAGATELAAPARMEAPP

pcGASCT = molecular target: T4, pcGASCT (Sus scrofa? (porcine), UniProt I3LM39 145-495); experiment: as above; conditions: protein: recombinant; tags: Flag/HA double tag vector; His6-SUMO; blunt
T4 sequence: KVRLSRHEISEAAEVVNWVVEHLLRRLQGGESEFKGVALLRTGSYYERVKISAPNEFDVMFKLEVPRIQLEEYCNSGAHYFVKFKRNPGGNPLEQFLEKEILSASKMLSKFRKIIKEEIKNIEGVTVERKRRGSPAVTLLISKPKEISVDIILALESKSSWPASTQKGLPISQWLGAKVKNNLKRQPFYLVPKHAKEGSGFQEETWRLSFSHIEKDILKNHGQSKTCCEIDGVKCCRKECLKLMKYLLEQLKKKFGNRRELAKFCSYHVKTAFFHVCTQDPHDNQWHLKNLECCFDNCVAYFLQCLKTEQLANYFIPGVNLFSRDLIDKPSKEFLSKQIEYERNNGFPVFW

Chain of mcGAS (Q8C6L5 whole entry): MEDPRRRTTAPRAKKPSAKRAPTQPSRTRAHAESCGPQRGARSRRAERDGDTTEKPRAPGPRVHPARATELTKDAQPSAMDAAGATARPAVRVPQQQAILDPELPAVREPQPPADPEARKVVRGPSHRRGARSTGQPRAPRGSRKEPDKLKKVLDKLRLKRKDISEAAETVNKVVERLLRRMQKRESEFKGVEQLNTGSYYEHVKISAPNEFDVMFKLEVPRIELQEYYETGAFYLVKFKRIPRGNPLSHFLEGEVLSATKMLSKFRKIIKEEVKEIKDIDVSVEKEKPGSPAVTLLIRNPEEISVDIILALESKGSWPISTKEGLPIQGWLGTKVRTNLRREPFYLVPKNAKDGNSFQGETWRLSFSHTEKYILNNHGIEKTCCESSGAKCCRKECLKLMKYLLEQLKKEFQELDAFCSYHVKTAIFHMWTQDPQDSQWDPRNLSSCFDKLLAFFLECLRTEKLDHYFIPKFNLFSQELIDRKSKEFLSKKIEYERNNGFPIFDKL
Chain of hcGAS (Q8N884 whole entry): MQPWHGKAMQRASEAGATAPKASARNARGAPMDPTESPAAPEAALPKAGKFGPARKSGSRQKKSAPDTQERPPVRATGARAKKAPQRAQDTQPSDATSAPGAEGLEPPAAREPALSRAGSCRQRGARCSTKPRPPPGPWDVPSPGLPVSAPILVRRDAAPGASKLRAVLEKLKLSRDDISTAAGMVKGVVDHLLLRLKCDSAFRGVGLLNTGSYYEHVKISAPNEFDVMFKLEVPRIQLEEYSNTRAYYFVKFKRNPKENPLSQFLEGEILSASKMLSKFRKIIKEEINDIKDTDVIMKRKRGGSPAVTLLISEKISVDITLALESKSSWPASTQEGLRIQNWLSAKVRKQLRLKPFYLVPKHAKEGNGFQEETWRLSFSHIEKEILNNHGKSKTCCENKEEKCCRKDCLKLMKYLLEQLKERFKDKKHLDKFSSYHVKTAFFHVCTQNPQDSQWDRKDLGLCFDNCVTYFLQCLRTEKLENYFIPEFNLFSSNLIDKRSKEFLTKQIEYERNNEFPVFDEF

For “hcGAS^CT (C-terminus, catalytic domain of human cGAS) (domain or fragment)”, the Kd [1] was 15.7 µM.

Work on “pcGAS^CT (C-terminus, catalytic domain of porcine cGAS) (domain or fragment)” yielded a Kd [1] of 2.85 µM.

AWKLQT [random peptide] was tested, and the “effect on cGAS enzymatic activity / cGAMP synthesis” value (pcGAS [2]) was “neither peptide A nor peptide B, nor the random peptide inhibited cGAMP synthesis”.

B1: ISD45 (dsDNA)
DNA 1: TACAGATCTACTAGTGATCTATGACTGATCTGTACATGATCTACA
DNA 2: TGTAGATCATGTACAGATCAGTCATAGATCACTAGTAGATCTGTA
B1: no binding (PRV US1); binds (hcGAS); binds (pcGAS [3]). B1: binds (mcGAS); binds (pcGASNT); binds (pcGASCT).
